Results as given in patent EP2105501A1 (Immatics Biotechnologies GmbH, dated 2009).

Target: T1, HLA-A*0205 (human)
T1 construct: Native HLA immunoprecipitated from shock-frozen tumor tissue
Experiment: HLA immunoprecipitation from glioblastoma tissue, peptide elution, ESI-LCMS/MS

B1: PTP-001 (peptide)
peptide: ALTTLMHQL
notes: Natural HLA ligand eluted from glioblastoma tissue
binding result: binds
